The DeepSol protein solubility set

test: soluble on expression in E. coli; label from the status in PepcDB or PDB records

Soluble on expression in E. coli, not soluble:
MGSDKIHHHHHHMNHIMLGTTNISIFPLVFGTLPLGPLQAGLSPSEGGRLIRHALEHGVTMIDTATLYDTYPHVREGIAGWQGDVTIVTKTHANDGPTARAHVEKGLRELGRERLDIVHLHGARVADPFSDRADVLAELLRMKDEGKIGHVGLSSHYICAILKAADHPEIEVVHPLINRTGMGILDGSAAEMAEAIAACARAGKGVYAMKALAGGNLIAEARASLAYVRGLEGVHGVAIGMLSEAEVEANIALFSGNAPEDEVWRQLESRRRKLRIMENFCKGCGGCVEACASGALTVVNGKAVLDEAACILCGYCAASCPEFIIRVV
MGSDKIHHHHHHMNIIIIGAQASGKMTIGQEIAKQTGMTLFHNHDSIDFVLRFMPWSPDSIALTESIRFKFFETFAKTGQEMIFTIVIDFNDSRDVVFLEKIQIVFQSHNQEVLFVELETELSERLKRNRTENRLKHKPSKRDIKWSESDICSTMDYAIFNPEVAPEALTYYHKINNTCLTATETAYLIIQKINQIKEKN
MGSDKIHHHHHHMNIKDLQYYVSLTQLKNFSLVAAQFHVSQPTISAAIRRLETELKTQLLIRANPHLPVALTTTGIQVQRHANQILLEHQLMCQEVAHTTTDQLVIGMPPIIEINYFPRIASQLPQALFSQIQPISQGSLAALKGLKNGQLDLAVLAYLNEFTDTTIQLTTFDTQSFSIVVPTDDPLATNSQLQFRSLRHQHFVALKDNFVHRQAFRQLSHQNHVRPTIVFESNEIGSILNMVRQHVGIALLSNAVQLPAGLQRLPLTDAQAPTFNVGVAYRHSMTFSPTQADLIQRLTAAFQSVDWRAY
MGSDKIHHHHHHMNKHIASMLLGALLLNVGCSAIMSEKGFITQDKQVTQFNTEYIEKLAQSLPQHMVNQISIDGDEQVSLKGLFIDNPNSHTLVFFIQGNGMKVDPDSLAVLLTLSQLGTDIAIFDRRGLGASNGQATIANLLTDAIQELTFIRHTYQPDKVIVHGYSLGSFIAAQLVKNQAADALVMQGSATNVDDWIATKIPWYMPFLTVETPESFKLVDNQEVVSKFYQGPLMVIGAEKDDQVPAELSEKLFLASQSKIKSLIIVPKANHGEMLNSAKTMQAYREFLARI
MGSDKIHHHHHHMNKKFLLTGASGFVGKHLYSINPSQFRCVVREDGERFPDAYKVNGINSKTDWTDSFLDIDCIIHLAGLAHSNNNRNDEYRETNFLGTLCLAQQASKSGVKRFVFVSSIGVNGNATLEKPFSIFDEPKPLNSYTNSKYDAEIGLKKIAAETGLEVVIVRPTLVYGPNAPGNFGLLTKLVKKLPVLPFGLANNKRDFIAVQNLADLLITCATHPNAAGHMFLASDMETVSIKQFTNAIADGLGKKVFQFPIPVSLMRLTGKLMRKSAMVEQLLGNLQVDSSNIKEVLDWTPPLTMKQAMTTLCDSGKSS
MGSDKIHHHHHHMNKYIMLLMVSLLSACSSTPRKPIPDDPFYAPVYPDAPATQTAATGSIFLDSQASSLYSDIRAHKIGDIITVVLMESTQAKKSATNDIKKGSDMSMDPLFAGGGNVTIKGVPLDLKYKDAYNTKRESDADQSNSLAGSISANVMQVLSNGNLVIRGEKWISINNGDEFIRVTGIVRSQDIKPDNTIESVRVANARIQYSGTGTFADAQKVGWLGQFFLGEWWPF
MGSDKIHHHHHHMNLATSERAQLATLLLEKGPNFPTLCGDWNTQELAAHLLIRESRPWIAAGMFLPGGSRIVADAMRKITQQPFEHVVAQWMKGPKWGYLGRYLDSVANRIEHFVHHEDVRRGETTVGQWQNLDLLPCNAKPRVLSERHSGELYDAMRWVAPLLLRRSACPVVIEPIGFPRLVVADAGVVSTRGDCVVHVRGDIGEVVLWILGRNQVDLFVDGPTHLLKKSSL
MGSDKIHHHHHHMNLAYLILAHNNPNHLQKLISSLDTSDVHFFVHIDGKSNILPFQANLISNKVTFVQERRNIFWGEFSIVQATIDLMKTALNKQDFDYLILISGSDYPLKNAQYIKDFFSKNKGSEFINLVELPNEQASKNLNRLYQYRISFSSKNIVLRAFRRVINCIINDLFHWQRNYRKSLGELKPYAGSQWWALSGDACNYILNFIAKNPEILKFFQTALIPDESFFHTILANSDFLTKVKPNLTFTKWNDTAHPEYITVEIVRDFKGMDAIYNHSIGGYGEVLFARKFAPDSDEVIKFINDNIA
MGSDKIHHHHHHMNLLSLYHFFAGKASDKQKEAIKRWAESSPDNYETLCREKKIFDAGILLVDKKELFQKENAPLLYKLINYTVKIAAVVLLVVVSVTIYKYQELVKKSEVLQTILVPAGQRINIILPDSTFVCLNSNTKFSYPSVFATNNRKVKLDGEAYFEVSANKNKPFYVHTSKGEIKVLGTHFNLEAYSNADVFKTSLFEGKVRVRVKGNNIYLKPDQMVCYHKNGKIHLETIHDYDQFRWREGLICIKSAKLKDIMKTFTKYFGDSIVIQNKEVEHYKYTGKFRQSRGVINALRLLQKDAPFTIEQDEDKQIIYIK
MGSDKIHHHHHHMNNKIYFTPGPSELYPTVRQHMITALDEKIGVISHRSKKFEEVYKTASDNLKTLLELPSNYEVLFLASATEIWERIIQNCVEKKSFHCVNGSFSKRFYEFAGELGREAYKEEAAFGKGFYPADITVPADAEIICLTHNETSSGVSMPVEDINTFRDKNKDALIFVDAVSSLPYPKFDWTKIDSVFFSVQKCFGLPAGLGVWILNDRVIEKSKALLAKRKSIGTYHTIPSMLEKARVNQTPETPNAMNIFLLGKVTGDMLQISADGIRKQTEEKAALINTYIESSKVFSFGVEDAKLRSMTTIVANTTMLPGEINKILEPFDMAVGAGYGSKKETQIRIANFPAHSLEQVHKLVQTLKEKIG
MGSDKIHHHHHHMNNMEIWVVDDDRDYCELIVEMLQDEFKVSPFYGAADFRVALQTQKPDLLLMDINLPDTDGITLCRELQASNQEVAVLFVSGMNTLEERLKAYEVNAVDFIAKPFELKELLAKVHSVAHYVMKQRELIQAESVSRNMAFQSMTESSQYGCVLQFFRQCFLCNDHQTLADAFFDLMQQLNLNTCLEIRGENVEYFAPRHAAISPIESNILELLDKHGRLYDFGCRTICNDKHVSFLIKNMPINDEVLYGRLRDIIAVVVEGLEARVLDISRQQTLTQVFLDIESLIGDINVATLEHDEKFSAALINMTTEIRGSFHVLDMTIEQEDYFTALIERNLKEVKSASEAFTRLQSALGKVMDVLGGSVS
MGSDKIHHHHHHMNPGWRVVDLIDFDGKVSYQRGQLAITSDSGELRATLPLAQIAVVLIGNKLIISGAVLVKLSEYDIAVLVCDWRRVPVAGSFSWNEHTRIAARQRAQASLSLPRQKSAWAQIIKAKILGQARTAAQLGFDATDLKNLARAVRSGDVDNREAMAAKRYWEIISAEDDFRRLPGLAATGWNGALDYAYTVLRGHGMRAICSAGLVGTLGVFHHGRGNQFALVDDLIEPFRPAIDYAVFSIVSNSQELDKETKRQLVAAVEEPFNSAGQSIPTVFTAFAQQYGRYVEGDVEKLVPPIWEGPFDAEER
MGSDKIHHHHHHMNPLNLIECLEQKERYTYNEGLIIDFILSHTERVLHMSIYELAEATNSSTSTIVRLCKKTETSGFKEFKIRLSRDLEIHYQAIRNVDANMPFLAQDSDLLIAKKIAQLTTETVQSTQQLLTEAMLNKSIDLLLTAENILAVGVSNSYIRLTDFQTKLLRIQLFIHLIPYQAEQFYLAINATKNDVAILVSYSGNTAEIVNEARIFAEGGTPIIAITSDLNSQLAKYATVILPIPNVEHADFKVSTFSSQLAIEYILNVLYSCIFSRNFDKNYTSQKNTPTSILKF
MGSDKIHHHHHHMNPVLKSSKLVIFDLDGTLYEGTDHFDYYANHLKQNVPQSQQLDFWRDYTAMKDGHHPVQIGKGYDVKRDYILTIDPMTISVQSVQTWDGSYVPAEEWETLYSDPVSFDFETIIAVGDGWWYPFVTAKHYGVEDCYASYVATKEYMVTDEFELTPLPGLREGLIELKATKEIVLVTNSDREDVQRLLHELHLHDVFNHIITSAKKPTRTTDIFKEVVHQYEVDMSQVVSVGDNFMNEIAQALTLGMQGIYIHPQRASEVAHDHLTVIRSVVELFKN
MGSDKIHHHHHHMNTLEIAKEVFEKEAQAILDLATNLDENFNQAVNLMLNTKGRCIVSGMGKSGHIGAKIAATLASTGTPSFFIHPGEALHGDLGMLTSEDVLIAISNSGETEEILKIIPAIKKREIPLIVMCGKKNSTLVKQGDIFLNIAVEKEACPLQLAPMSSTTATLVMGDALAAALMKVRNFKPDDFALFHPGGSLGRKLLTKVKDLMVSSNLPIVHPDTEFNDLVDVMTSGKLGLCVVLENEKLVGIITDGDLRRALKASDKPRFDFKAKEIMSINPKVVDADAMASEAEGIMLKHKIKEIIVGKEEKVVGIIQLYAIGNV
MGSDKIHHHHHHMNTNKRVLILTANYGNGHVQVAKTLYEQCVRLGFQHVTVSNLYQESNPIVSEVTQYLYLKSFSIGKQFYRLFYYGVDKIYNKRKFNIYFKMGNKRLGELVDEHQPDIIINTFPMIVVPEYRRRTGRVIPTFNVMTDFCLHKIWVHENVDKYYVATDYVKEKLLEIGTHPSNVKITGIPIRPQFEESMPVGPIYKKYNLSPNKKVLLIMAGAHGVLKNVKELCENLVKDDQVQVVVVCGKNTALKESLSALEAENGDKLKVLGYVERIDELFRITDCMITKPGGITLTEATAIGVPVILYKPVPGQEKENANFFEDRGAAIVVNRHEEILESVTSLLADEDTLHRMKKNIKDLHLANSSEVILEDILKESEMMTAKQKAKVLS
MGSDKIHHHHHHMNTRNDNSKILEIYKMKLFGELVKAVWNDDIEDIENLPNKILNEDLKDNLNNYFSGKFDKDTMVNLIRVTMGLDVTEDTDKNLKESLHEAVNLDEVKRPIISVISDACKYCDENNKEDESCKIRSKHINCNEEDVCSACGDCVSRCKLGAISDKIEFIPMIKLLKDIKSPVYAIVAPAFVGQFGKDVSPGKLRTALKKIGFEDMIEVALAADMLTAKEAYDYYEHMKKDEEGCFITSCCCPIWVSLIQNSFPQILENVSPSVSPMIACGRAVKILNPDAKVVFIGPCMAKKKEAMLEDIKDAVDFVLTFKELQEIFDALELNPAIMDESNRVEASLSGRVYARTGGVSKAVKLSVRRIDKNIKFEEKAFEGTKECMDGLKKVLNKEIEATFIEGMGCVGGCVGGPKRILSVEEGTKNVDEYSESTNMETPFDNLNVLQFLTSLGIKRVESLGEKEEEKVKKIFSRDIKSNKKENKYKK
MGSDKIHHHHHHMNVEKLKKMKGKEKIVMVTAYDAPSARIARDAGIDVILVGDSLGNNVLGYENTIPVTMEEMLIHVAAVKRGAPDAFIVADMPFLSYQTSVEKAVENAGKFLKVGANAVKIEGGEEFGELVQKLVESGIPVMGHIGLTPQFVNRFGGYRVQGKTEKNREYLLRSARELEKRGAFAIVLELVVEEVAKEITESVSIPTIGIGSGRFCDGQVLVWHDLLGLNPDFAPRFSKKYANLYEVILKALQEFRREVKKGLFPTEEHSFTDKSKGGVSS
MGSDKIHHHHHHMNVENQSLSDIEIILSHRYDNGADYWTTPDKRLIKGSPFSTLDSVLYLLELGVNPDDTLLKECADLIFSTWREDGRFKLYPNGGIYPCHTANAANVLCHMGYASDIRMQKTFQHFLDTQYTDGGWRCNKFSFGRGPETEYSNPLPTLNILNAFRFSNYLNKESKLDKAVDFLLDHWTIKKPIGPCHYGIGTLFMQVEYPFRNYNLFLYVYVLSFYSRAKKDKRFLEALKILESKMIGNKIVVERVVPKLSKLSFCKKGESSEIATTHYYEILKNLDK
